Experimental data: publication PMC4513076

T1: IolR (Salmonella enterica) (UniProt A0A0H3NJ61)
T1 sequence: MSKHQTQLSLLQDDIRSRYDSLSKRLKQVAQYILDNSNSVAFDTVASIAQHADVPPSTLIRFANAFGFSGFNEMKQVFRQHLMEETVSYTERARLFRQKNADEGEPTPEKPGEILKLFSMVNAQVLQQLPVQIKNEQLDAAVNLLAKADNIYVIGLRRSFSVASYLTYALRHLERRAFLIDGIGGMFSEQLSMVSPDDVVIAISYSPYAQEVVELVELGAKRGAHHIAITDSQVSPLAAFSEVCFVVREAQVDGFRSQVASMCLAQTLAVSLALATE


Legend:
[1] = target: T1, IolR (Salmonella enterica); test: EMSA
[2] = target: IolR, myo-inositol catabolism repressor (RpiR-like transcriptional repressor) of Salmonella enterica (Salmonella enterica serovar Typhimurium LT2); test: SEC
IolR = IolR (Salmonella enterica, UniProt A0A0H3NJ61 1-277); test: EMSA

Molecule	binding [1]	also measured
CATACCGGTTTCCCTTACACAGAAGTGACCGGATAATTTTAAACGCTTTCGCTATTTTATGCTGTGACGTTTCCCGGATGTTGCGTTTTTCCTGCCAGATAGCGCGTTTTGAAACGGGTGAAATGTTCACCTAAACTGGTTGCCGCCTCG (double strand) [Ppat (150 nt)]	binds	–
CATGCATGATACTCTAATAGAACGAAAATTTCGTAAATAACCATATTAGCACAAATGAACTGAACATACAGTTAACAACATTCAAATTGCGCTGTGGTTACCTTCAGTACAGAATTTGCTGGCGGGCTGGGTTCTGAGCAATCTGAATCTGACCGCATAAATGCGACAGGATCAG (double strand) [PiolR (175 nt)]	binds	–
IolR, myo-inositol catabolism repressor (RpiR-like transcriptional repressor) of Salmonella enterica (natural protein)	–	stoichiometry N [2]: 4
Ppat45 (dsDNA) DNA 1: CAACCAGTTTAGGTGAACATTTCACCCGTTTCAAAACGCGCTATCT DNA 2: AGATAGCGCGTTTTGAAACGGGTGAAATGTTCACCTAAACTGGTTG	–	binding result (IolR): binds
